One substance from patent US20210093667 can be followed below.

Series [1] relates to dPspCas13b-ADAR1DD H133A,H1058A (Prevotella sp. P5-125 / Homo sapiens). In words: cell_activity. Conditions: on-target A-to-I RNA editing.
In series [2] the test system is dPspCas13b-ADAR2DD(E488Q) (REPAIRv1) H133A,H1058A (Prevotella sp. P5-125 / Homo sapiens). Nature of the series: cell_activity.

With “Cluc W85X targeting guide ; Cluc W85X transcript (254 A>G site)”, the activity was 29 % editing in series [1], 80 % editing in series [2] (10 ng Cas13-ADAR transfected), 83 % editing in series [2] (150 ng Cas13-ADAR transfected) and 71 % editing in series [2] (on-target A-to-I RNA editing).
